This data set concerns the molecule itself. Description: native MS.

B1: His-MukF (natural protein, E. coli, UniProt P60293 1-440, looked up)
chain: MSEFSQTVPELVAWARKNDFSISLPVDRLSFLLAVATLNGERLDGEMSEGELVDAFRHVSDAFEQTSETIGVRANNAINDMVRQRLLNRFTSEQAEGNAIYRLTPLGIGITDYYIRQREFSTLRLSMQLSIVAGELKRAADAAEEGGDEFHWHRNVYAPLKYSVAEIFDSIDLTQRLMDEQQQQVKDDIAQLLNKDWRAAISSCELLLSETSGTLRELQDTLEAAGDKLQANLLRIQDATMTHDDLHFVDRLVFDLQSKLDRIISWGQQSIDLWIGYDRHVHKFIRTAIDMDKNRVFAQRLRQSVQTYFDEPWALTYANADRLLDMRDEEMALRDEEVTGELPEDLEYEEFNEIREQLAAIIEEQLAVYKTRQVPLDLGLVVREYLSQYPRARHFDVARIVIDQAVRLGVAQADFTGLPAKWQPINDYGAKVQAHVIDKY
Turning to B1, the binding result is given as “binds”.

(Values after publication doi:10.1101/2021.04.12.439405 (bioRxiv, 2021).)
